# Assay results from patent US8367390B2, “Galactanase variants” (Novozymes A/S, priority 2002, dated 2013).
# Assay: Activity with ONPG, release of o-nitrophenol (ONP) at 405 nm
# Assay type: biochemical
# Conditions: for Time (min) to increase A405 by: 0.025 / Time (min) to increase A405 by: 0.05 / Time (min) to increase A405 by: 0.1 / Time (min) to increase A405 by: 0.2 / Time (min) to increase A405 by: 0.4 / Time (min) to increase A405 by: 0.8 / Time (min) to increase A405 by: 1.6 / Time (min) to increase A405 by: 3.2: Table 8, ONPG 5 mg/ml
# Experimental: The activity of HIGAL and MTGAL with ONPG was tested by mixing 200 microliters (normally 5.5 mg/ml) ONPG in 50 mM sodium acetate, 1 mM CaCl2, 0.01% Triton X-100, pH 6.5 with 25 microliters galactanase (normally 1 mg/ml) in the well of a microtiter plate. Release of o-nitrophenol (ONP) was measured at room temperature at 405 nm every 10 seconds normally for 30 min on a SpectraMaxPlus (Molecular Devices). Effects on the observed release of ONP was studied with varied enzyme concentration, ONPG concentration and with addition of galactose (Gal), beta-1,4-galactobiose (Gal2) (Megazyme), beta-1,4-galactotriose (Gal3), beta-1,4-galactotetraose (Gal4), glucose (Glu), arabinose (Ara), galacturonic acid (GalA), maltose (Mal) or maltotriose (Mal3).
# In Tables 8-11 below, incubation times required to increase the observed absorbance at 405 nm by given amounts are listed. Cells marked ‘n.r.’ indicate that the increase in absorbance was not reached in the experiment. In general, the initial increase in absorbance at 405 nm was very slow, but after a lag phase the rate of ONP release often increased drastically—often approximately exponentially. The most likely explanation for the observed kinetics is that ONPG reacts with the enzyme to give an enzyme-galactosyl intermediate which hydrolyses very slowly. Instead, the Gal of the intermediate is released by transglycosylation, initially with ONPG or added sugar as acceptor. In cases where the rate of ONP release increases, these transglycosylation products are even better acceptors than the initial ones. […] More likely, Gal inhibits the subsequent transglycosylation, which requires binding of ONPG to the +1 and +2 subsites, e.g., by binding to the +2 subsite. With 50 mg/ml Gal added (results not shown) release of ONP was even slower with only insignificant increase of absorbance at 405 nm in 30 min.
molecule,measurement,setting,value
"MTGAL: GH Family 53 galactanase from Myceliophthora thermophila, SEQ ID NO: 1 (wild type parent) (protein, listed as Myceliophthora thermophila, mat_peptide (1)..()) ALTYRGVDWSSVVVEERAGVSYKNTNGNAQPLENILAANGVNTVRQRVWVNPADGNYNLDYNIAIAKRAKAAGLGVYIDFHYSDTWADPAHQTMPAGWPSDIDNLSWKLYNYTLDAANKLQNAGIQPTIVSIGNEIRAGLLWPTGRTENWANIARLLHSAAWGIKDSSLSPKPKIMIHLDNGWDWGTQNWWYTNVLKQGTLELSDFDMMGVSFYPFYSSSATLSALKSSLDNMAKTWNKEIAVVETNWPISCPNPRYSFPSDVKNIPFSPEGQTTFITNVANIVSSVSRGVGLFYWEPAWIHNANLGSSCADNTMFSQSGQALSSLSVFQRI",Slowing of ONP release by addition of Gal,Gal 5 mg/ml,about a factor of two
same,Time (min) to increase A405 by: 0.025,"enzyme 28 μg/ml, no sugar",40.4 min
same,Time (min) to increase A405 by: 0.05,"enzyme 28 μg/ml, no sugar",n.r.
same,Time (min) to increase A405 by: 0.1,"enzyme 28 μg/ml, no sugar",n.r.
same,Time (min) to increase A405 by: 0.2,"enzyme 28 μg/ml, no sugar",n.r.
same,Time (min) to increase A405 by: 0.4,"enzyme 28 μg/ml, no sugar",n.r.
same,Time (min) to increase A405 by: 0.8,"enzyme 28 μg/ml, no sugar",n.r.
same,Time (min) to increase A405 by: 1.6,"enzyme 28 μg/ml, no sugar",n.r.
same,Time (min) to increase A405 by: 3.2,"enzyme 28 μg/ml, no sugar",n.r.
same,Time (min) to increase A405 by: 0.025,"enzyme 55 μg/ml, Gal 5 mg/ml",40.2 min
same,Time (min) to increase A405 by: 0.05,"enzyme 55 μg/ml, Gal 5 mg/ml",n.r.
same,Time (min) to increase A405 by: 0.1,"enzyme 55 μg/ml, Gal 5 mg/ml",n.r.
same,Time (min) to increase A405 by: 0.2,"enzyme 55 μg/ml, Gal 5 mg/ml",n.r.
same,Time (min) to increase A405 by: 0.4,"enzyme 55 μg/ml, Gal 5 mg/ml",n.r.
same,Time (min) to increase A405 by: 0.8,"enzyme 55 μg/ml, Gal 5 mg/ml",n.r.
same,Time (min) to increase A405 by: 1.6,"enzyme 55 μg/ml, Gal 5 mg/ml",n.r.
same,Time (min) to increase A405 by: 3.2,"enzyme 55 μg/ml, Gal 5 mg/ml",n.r.
same,Time (min) to increase A405 by: 0.025,"enzyme 55 μg/ml, no sugar",29.9 min
same,Time (min) to increase A405 by: 0.05,"enzyme 55 μg/ml, no sugar",42.5 min
same,Time (min) to increase A405 by: 0.1,"enzyme 55 μg/ml, no sugar",54.5 min
same,Time (min) to increase A405 by: 0.2,"enzyme 55 μg/ml, no sugar",n.r.
same,Time (min) to increase A405 by: 0.4,"enzyme 55 μg/ml, no sugar",n.r.
same,Time (min) to increase A405 by: 0.8,"enzyme 55 μg/ml, no sugar",n.r.
same,Time (min) to increase A405 by: 1.6,"enzyme 55 μg/ml, no sugar",n.r.
same,Time (min) to increase A405 by: 3.2,"enzyme 55 μg/ml, no sugar",n.r.
same,Time (min) to increase A405 by: 0.025,"enzyme 110 μg/ml, Gal 5 mg/ml",26.9 min
same,Time (min) to increase A405 by: 0.05,"enzyme 110 μg/ml, Gal 5 mg/ml",44.5 min
same,Time (min) to increase A405 by: 0.1,"enzyme 110 μg/ml, Gal 5 mg/ml",n.r.
same,Time (min) to increase A405 by: 0.2,"enzyme 110 μg/ml, Gal 5 mg/ml",n.r.
same,Time (min) to increase A405 by: 0.4,"enzyme 110 μg/ml, Gal 5 mg/ml",n.r.
same,Time (min) to increase A405 by: 0.8,"enzyme 110 μg/ml, Gal 5 mg/ml",n.r.
same,Time (min) to increase A405 by: 1.6,"enzyme 110 μg/ml, Gal 5 mg/ml",n.r.
same,Time (min) to increase A405 by: 3.2,"enzyme 110 μg/ml, Gal 5 mg/ml",n.r.
same,Time (min) to increase A405 by: 0.025,"enzyme 110 μg/ml, no sugar",14.0 min
same,Time (min) to increase A405 by: 0.05,"enzyme 110 μg/ml, no sugar",20.5 min
same,Time (min) to increase A405 by: 0.1,"enzyme 110 μg/ml, no sugar",26.4 min
same,Time (min) to increase A405 by: 0.2,"enzyme 110 μg/ml, no sugar",31.4 min
same,Time (min) to increase A405 by: 0.4,"enzyme 110 μg/ml, no sugar",34.5 min
same,Time (min) to increase A405 by: 0.8,"enzyme 110 μg/ml, no sugar",39.2 min
same,Time (min) to increase A405 by: 1.6,"enzyme 110 μg/ml, no sugar",43.9 min
same,Time (min) to increase A405 by: 3.2,"enzyme 110 μg/ml, no sugar",46.7 min
